This assay has as its target anaphase-promoting complex/cyclosome (APC/C), human (human (endogenous in HeLa)) (UniProt Q9H1A4). Kind of assay: cryo-EM structure.
Sequence of UniProt Q9H1A4 (Q9H1A4 whole entry, looked up, one chain of several): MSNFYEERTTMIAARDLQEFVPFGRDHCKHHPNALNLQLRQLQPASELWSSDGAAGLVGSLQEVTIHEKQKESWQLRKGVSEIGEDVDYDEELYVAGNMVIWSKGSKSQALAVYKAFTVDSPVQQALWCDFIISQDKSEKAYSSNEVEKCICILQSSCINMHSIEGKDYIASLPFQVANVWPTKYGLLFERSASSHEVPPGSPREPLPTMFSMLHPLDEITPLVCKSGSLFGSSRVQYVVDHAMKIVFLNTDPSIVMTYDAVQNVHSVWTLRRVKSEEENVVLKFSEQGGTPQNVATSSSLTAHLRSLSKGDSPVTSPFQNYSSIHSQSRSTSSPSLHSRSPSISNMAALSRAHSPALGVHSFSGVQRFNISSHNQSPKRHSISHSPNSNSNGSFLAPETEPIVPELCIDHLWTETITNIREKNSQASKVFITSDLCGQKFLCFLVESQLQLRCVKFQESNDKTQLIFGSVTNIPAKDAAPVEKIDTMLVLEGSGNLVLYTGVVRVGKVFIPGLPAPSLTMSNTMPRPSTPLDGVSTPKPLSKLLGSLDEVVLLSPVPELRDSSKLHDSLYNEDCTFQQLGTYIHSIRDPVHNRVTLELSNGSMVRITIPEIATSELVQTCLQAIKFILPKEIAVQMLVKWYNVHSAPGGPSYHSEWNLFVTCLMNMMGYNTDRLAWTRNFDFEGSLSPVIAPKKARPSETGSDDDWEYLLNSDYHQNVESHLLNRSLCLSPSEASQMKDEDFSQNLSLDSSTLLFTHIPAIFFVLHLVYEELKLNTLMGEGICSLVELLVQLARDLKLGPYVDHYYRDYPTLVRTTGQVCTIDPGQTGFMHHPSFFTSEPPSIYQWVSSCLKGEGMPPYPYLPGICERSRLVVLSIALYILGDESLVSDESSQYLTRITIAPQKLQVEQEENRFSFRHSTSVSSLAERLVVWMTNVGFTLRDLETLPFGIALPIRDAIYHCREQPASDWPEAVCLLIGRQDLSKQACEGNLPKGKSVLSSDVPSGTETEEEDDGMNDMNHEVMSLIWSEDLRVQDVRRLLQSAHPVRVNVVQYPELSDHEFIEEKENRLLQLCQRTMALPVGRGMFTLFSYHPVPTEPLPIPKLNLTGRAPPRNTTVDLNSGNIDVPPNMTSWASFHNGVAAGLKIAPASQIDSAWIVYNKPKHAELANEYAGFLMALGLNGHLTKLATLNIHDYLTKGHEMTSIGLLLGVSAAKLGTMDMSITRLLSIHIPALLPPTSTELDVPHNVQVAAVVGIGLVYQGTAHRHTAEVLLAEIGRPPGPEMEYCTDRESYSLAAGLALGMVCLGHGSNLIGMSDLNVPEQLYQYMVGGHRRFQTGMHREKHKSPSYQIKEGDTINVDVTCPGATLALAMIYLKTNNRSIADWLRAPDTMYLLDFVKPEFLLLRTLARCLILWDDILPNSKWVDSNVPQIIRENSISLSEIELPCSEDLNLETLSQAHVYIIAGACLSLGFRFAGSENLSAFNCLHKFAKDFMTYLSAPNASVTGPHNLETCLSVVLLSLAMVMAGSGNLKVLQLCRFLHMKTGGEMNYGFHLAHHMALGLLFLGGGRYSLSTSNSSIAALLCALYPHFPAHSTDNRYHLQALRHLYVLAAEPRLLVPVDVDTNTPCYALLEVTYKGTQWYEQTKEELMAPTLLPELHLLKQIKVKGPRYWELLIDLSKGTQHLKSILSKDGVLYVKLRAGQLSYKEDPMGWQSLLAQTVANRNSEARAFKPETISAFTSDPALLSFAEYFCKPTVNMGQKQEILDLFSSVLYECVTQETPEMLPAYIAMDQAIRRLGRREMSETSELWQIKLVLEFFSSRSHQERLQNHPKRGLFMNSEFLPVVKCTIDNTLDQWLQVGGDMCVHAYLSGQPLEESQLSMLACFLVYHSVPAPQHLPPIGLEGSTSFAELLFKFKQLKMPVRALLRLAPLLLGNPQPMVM

On to “recombinant Cdc20 (from UniProt Q12834 1-499) (natural protein)”, for which the percent of APC/C molecules with the additional Cdc20 mass is 30%.

Values taken from publication PMC2989460.
